Measured values taken from article PMC11538452 (Nature Communications, 2024).
Numbering of substitutions follows the chain as printed. Read-outs that look alike come from different tables or passages of the source.

Key:
[1] = target: T1, pTag9aa (free, without cargo) (Clostridium tetani, tetanus …)
[2] = target: T2, pTag_(18aa) (original 18 amino acid peptide tag) (Clostridium tetani, tetanus …)
pTag_(12aa) = pTag_(12aa) (Clostridium tetani, tetanus …); assay: SPR; […]; 25 °C, HBS with 0.05% Tween20, pH 7.5; Biacore T200, 1:1 Langmuir model; details: both partners purified
[3] = target: T1, pTag9aa (free, without cargo); assay: as above; details: both partners purified
[4] = target: T2, pTag_(18aa) (original 18 amino acid …); assay: as above; details: both partners purified
human CD40-Fc = target: T3, human CD40-Fc (human, UniProt P25942); assay: SPR; wildtype against deimmunized variant on the CD40 protein (Supplementary Fig. 3B); format of this experiment not told in what was shown; details: both partners purified
T3 construct: also called hCD40-Fc
T3 sequence (P25942 21-193): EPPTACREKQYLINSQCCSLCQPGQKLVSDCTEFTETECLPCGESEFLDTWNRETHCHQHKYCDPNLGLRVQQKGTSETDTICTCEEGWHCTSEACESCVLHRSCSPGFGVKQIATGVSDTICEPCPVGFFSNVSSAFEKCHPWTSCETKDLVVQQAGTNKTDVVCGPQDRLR

B1: BiA9*2_HF (antibody, V domains shown)
VH: QVQLVQSGAEVKKPGASVKVSCKASGFNIKDFNIHWVRQAPGQGLEWIGRIDPENGDAEYVPKFQGRVTMTRDTSTSTVYMELSSLRSEDTAVYYCTTGSYDLDVEYWGQGTLVTVSS
VL: DIQMTQSPSSLSASVGDRVTITCHASQNINVWLSWYQQKPGKAPKLLIYKASTLHTGVPSRFSGSGSGTDFTLTISSLQPEDFATYYCQQGQSYPLTFGQGTKLEIK
- binding result [1]: binds
- binding result [2]: binds

B2:  (scFv, V domains shown)
VH: B1 VH with N55S
VL: B1 VL
notes: also called humanized scFv; humanized single chain clone SG; source: E. coli, purified (Ni-NTA)
- binding result (pTag_(12aa)): binds
- binding result [3]: binds
- binding result [4]: binds

B3: A9 anti-CD40 antibody, wildtype variant (before deimmunization) (antibody, V domains shown)
VH: EVQLLESGGGLVQPGGSLRLSCAASGFTFSSYAMSWVRQAPGKGLEWVSGISGYSGSTYYADSVKGRFTISRDNSKNTLYLQMNSLRAEDTAVYYCARYYSYYGYYYFDYWGQGTLVTVSS
VL: DIQMTQSPSSLSASVGDRVTITCRASQSISSYLNWYQQKPGKAPKLLIYAASSLQSGVPSRFSGSGSGTDFTLTISSLQPEDFATYYCQQGYPYPFTFGQGTKLEIK
notes: also called WT; original variant
- Kd (human CD40-Fc): 3.4 nM

B4: murine anti-pTag scFv (scFv, V domains shown)
VH: EVRLLQSGAALVRPGASVKLSCTASGFNIKDFNIHWVKQRPEQGLEWIGRIDPENGDAEYVPKFQVRATMTTDTSSNTVYLHLSSLTSGDTAVYYCTTGSYDLDVEYWGQGTTLTVSS
VL: ELQMTQSPSSLSASLGDTVTITCHASQNINVWLSWYQQRPGNIPKLLIYKASTLHTGVPSRFRGSGSGTGFTLTISSLQPEDIATYYCQQGQSYPLTFGAGTKLELK
notes: also called murine scFv; mscFv
- binding result (pTag_(12aa)): binds
- Kd [4]: 4 nM
